Test results as given in the supplement of paper PMC9170038.

Test system: MS2 coat protein
Assay: apparent KD of MS2 coat protein; designed switch direction (-1 OFF switch, 1 ON switch): -1; higher = weaker reporter binding
Method in brief: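 SNAP-549-labelled MS2 coat protein was titrated, doubling from 0.7 or 1.5 nM to 3 µM, over designed RNA switches transcribed on Illumina chips by stalled E. coli RNA polymerase. Runs were done without input, with 200 uM small-molecule ligand, or with an oligonucleotide input. Apparent KD is the per-design median over clusters of curve-fitted normalised fluorescence.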

[1] = Eterna round: R95, input ligand: FMN 200 uM
[2] = Eterna round: R95, input ligand: microRNA oligo, concentration not stated
[3] = Eterna round: R95, input ligand: none

| Sequence | apparent KD of MS2 coat protein [1] [nM] | apparent KD of MS2 coat protein [2] [nM] | apparent KD of MS2 coat protein [3] [nM] | apparent KD of MS2 coat protein (input ligand: FMN 200 uM) [nM] | apparent KD of MS2 coat protein (input ligand: none) [nM] |
| --- | --- | --- | --- | --- | --- |
| GGUUGCGCAGGAUAUACAUGAGGAUCACCCAUGUGAGAGAAAUAAGUGAGGAAGAAAAGUAGAAGGGCGUGACG [Mat - Exclusion 3 - Mod of Salish D72] (puzzle: Exclusion 3) | 170 | 37.7 | 68.9 | – | – |
| UUAGGUAAAGGAUAUGUAUGGGCGACCCAUAUGACCGAGUGACAUGAGGAUCACCCAUGUAGAAGGUUGCUGAU [Eternabot (L1) Solution 60] (Eterna round: R97, puzzle: Exclusion 2) | – | – | – | 125 | 95.7 |
| AAUAUGUGAGGAUAUGCUUUAAGAAGAAUGAGUUUGAAAUAACAUGAGGAUCACCCAUGUAGAAGGCGCUAAAA [Lollin - Beta 1] (puzzle: Exclusion 2) | 19.4 | 19.3 | 25.9 | – | – |
| GCUCUCUCUCUGUCUCUCUACAUGAGGAUCACCCAUGUGUCUCGCUCGCUCUCUCUCUCUCUUUCUCUCUCUCUCUU [Default title] (Eterna round: R97, puzzle: Sensor, turn-off variant 1) | – | – | – | 104 | 135 |
| UUUUAACAUGAGGAUCACCCAUGUGAGGAUAUCGAAAUUUAUAUUAAUAUUAAUAAUACGAGAAGGCACAUUUU [JMF 22] (puzzle: Exclusion 1) | – | 71 | – | – | – |
| UAGCAGAGAGGAUAUACAUUCAUCACCCGCGCAUCAUGCGCACAUGAGGAUCACCCAUGUAGAAGGCUCGUGCC [EX2 C.27] (Eterna round: R97, puzzle: Exclusion 2) | – | – | – | 74.3 | 28.2 |
| AGUGUGAUAGGAUAUACAUGAGGAUCACCCAUGUGAAUGGUAAUGUGUCCAAGAUCAGGUAGAAGGGUCGGGUU [Eternabot (L1) Solution 56] (Eterna round: R97, puzzle: Exclusion 3) | – | – | – | 83.6 | 101 |
| AAUAAGUGAGGAUAUCCAAUAAUAAAUAAAAUAAUAAAUAAGGAGAAGGCACAUGAGGAUCACCCAUGUAAUAA [JMF's solution 2] (puzzle: Exclusion 4) | 19 | 14.8 | 15.7 | – | – |
| UUGCCACAUGAGGAUCACCCAUGUGAGGAUAUGGCCCGCCCGGCGUGUGCUGGUUCUGUCAGAAGGCGCGUGGG [salish99_ex1_r4_030] (Eterna round: R97, puzzle: Exclusion 1) | – | – | – | 73 | 33.1 |
| AUAAUGUCAGGAUAUCAGACGUACAGCUGCGGCUGUACGUCUGAGAAGGGACAUGAGGAUCACCCAUGUGAUUA [E4/3-A3] (Eterna round: R97, puzzle: Exclusion 4) | – | – | – | 124 | 1460 |
| AAUAACAGAGGAUAUACUGUUUUAUGUAUUUAUUAUUUUAAACAUGAGGAUCACCCAUGUAGAAGGCUGAUUGA [JMF 71] (puzzle: Exclusion 2) | – | 26.8 | – | – | – |
| GAGGAGCAAGGAUAUACGAGGAGAGGGAAGAGAGGAGAGAGACAUGAGGAUCACCCAUGUAGAAGGUGCAAGGG [JR_Exclu2_Sub093] (puzzle: Exclusion 2) | 116 | 131 | 180 | – | – |
| ACACCGCAAGGAUAUACUUGCGGUGGUGUUCGAAGCUUUCUACUUGAGGAUCACCCAAGUAGAAGGUGCGGUGU [jl-ex2.4.73 ViennaUCT mod] (Eterna round: R97, puzzle: Exclusion 2) | – | – | – | 12.8 | 12.3 |
